These are literature values, as cited in paper PMC2635555.

For this data set, the target named is Histone H3 (H3K4me0) N-terminal tail (Homo sapiens) (UniProt P68431).

AIRE PHD1, sequence (O43918 296-343): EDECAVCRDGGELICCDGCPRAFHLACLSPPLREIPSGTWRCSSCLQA

In the case of AIRE PHD1 (from UniProt O43918), the Kd was 5 µM.

Usually Kd stands for the concentration at which binding is half-saturated.
